Laboratory results published in the supplement of paper PMC9112550, “Optimization of the antimicrobial peptide Bac7 by deep mutational scanning” (BMC Biology, 2022).

Test system: Escherichia coli TOP10
Assay: shrunken log2 fold change of peptide-encoding DNA abundance (4.5 h post-induction vs induction); higher = less antimicrobial activity (less host growth inhibition)
Details: time post-induction: 4.5 h; library: site-saturation at positions 5, 18, 19, 20
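Also: peptides expressed intracellularly from a pBAD plasmid library in pooled LB shake-flask culture, induced with 0.3% L-arabinose, DNA abundance read by NGS, three biological replicates, DESeq2 with apeglm shrinkage.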

RRIRSRPPRLPRPRPRPHKCPRP
shrunken log2 fold change: 0.00997

RRIRARPPRLPRPRPRPSYPPRP
shrunken log2 fold change: -0.312

RRIRYRPPRLPRPRPRPIWFPRP
shrunken log2 fold change: -0.269

RRIRPRPPRLPRPRPRPLLDPRP
shrunken log2 fold change: 0.0537

RRIRARPPRLPRPRPRPKSFPRP
shrunken log2 fold change: 0.0951

RRIRTRPPRLPRPRPRPCFKPRP
shrunken log2 fold change: -0.362

RRIRVRPPRLPRPRPRPPCDPRP
shrunken log2 fold change: 0.52

RRIRERPPRLPRPRPRPACCPRP
shrunken log2 fold change: 0.0931

RRIRKRPPRLPRPRPRPESLPRP
shrunken log2 fold change: -0.024

RRIRKRPPRLPRPRPRPLMCPRP
shrunken log2 fold change: -0.122

RRIRYRPPRLPRPRPRPDGWPRP
shrunken log2 fold change: 0.212

RRIRTRPPRLPRPRPRPNLRPRP
shrunken log2 fold change: -0.184

RRIRLRPPRLPRPRPRPACAPRP
shrunken log2 fold change: 0.541

RRIRWRPPRLPRPRPRPTCPPRP
shrunken log2 fold change: 0.187

RRIRVRPPRLPRPRPRPMDQPRP
shrunken log2 fold change: 0.188

RRIRFRPPRLPRPRPRPQRRPRP
shrunken log2 fold change: -0.177

RRIRKRPPRLPRPRPRPLWTPRP
shrunken log2 fold change: 0.0306

RRIRPRPPRLPRPRPRPEDEPRP
shrunken log2 fold change: 0.242

RRIRARPPRLPRPRPRPEPEPRP
shrunken log2 fold change: 0.967

RRIRWRPPRLPRPRPRPGHWPRP
shrunken log2 fold change: 0.335

RRIRERPPRLPRPRPRPNIYPRP
shrunken log2 fold change: -0.538

RRIRPRPPRLPRPRPRPLFCPRP
shrunken log2 fold change: -0.0561

RRIRTRPPRLPRPRPRPGSMPRP
shrunken log2 fold change: -0.199

RRIRDRPPRLPRPRPRPWNNPRP
shrunken log2 fold change: -0.0248

RRIRTRPPRLPRPRPRPFGTPRP
shrunken log2 fold change: -0.107

RRIRCRPPRLPRPRPRPSVCPRP
shrunken log2 fold change: 0.0114

RRIRMRPPRLPRPRPRPYDMPRP
shrunken log2 fold change: -0.0585

RRIRMRPPRLPRPRPRPLEIPRP
shrunken log2 fold change: 0.103

RRIRWRPPRLPRPRPRPTNPPRP
shrunken log2 fold change: -0.0172

RRIRSRPPRLPRPRPRPIEFPRP
shrunken log2 fold change: -0.387

RRIRLRPPRLPRPRPRPSPHPRP
shrunken log2 fold change: -0.242

RRIRDRPPRLPRPRPRPHLGPRP
shrunken log2 fold change: 0.0158

RRIRVRPPRLPRPRPRPIPAPRP
shrunken log2 fold change: 0.000426

RRIRQRPPRLPRPRPRPMMKPRP
shrunken log2 fold change: -0.0269

RRIRQRPPRLPRPRPRPPFFPRP
shrunken log2 fold change: 0.249

RRIRDRPPRLPRPRPRPLTMPRP
shrunken log2 fold change: 0.188

RRIRCRPPRLPRPRPRPVHVPRP
shrunken log2 fold change: -0.496

RRIRNRPPRLPRPRPRPLMSPRP
shrunken log2 fold change: -0.316

RRIRKRPPRLPRPRPRPEQMPRP
shrunken log2 fold change: -0.000598

RRIRCRPPRLPRPRPRPLAQPRP
shrunken log2 fold change: 0.103

RRIRPRPPRLPRPRPRPWSTPRP
shrunken log2 fold change: -0.172

RRIRARPPRLPRPRPRPSFAPRP
shrunken log2 fold change: 0.432

RRIRIRPPRLPRPRPRPPKWPRP
shrunken log2 fold change: -0.00369

RRIRPRPPRLPRPRPRPCTEPRP
shrunken log2 fold change: 0.0737

RRIRQRPPRLPRPRPRPAWEPRP
shrunken log2 fold change: 0.245

RRIRYRPPRLPRPRPRPWVIPRP
shrunken log2 fold change: -0.0317

RRIRTRPPRLPRPRPRPGMQPRP
shrunken log2 fold change: -0.0474

RRIRTRPPRLPRPRPRPDIVPRP
shrunken log2 fold change: -0.0539

RRIRARPPRLPRPRPRPVAAPRP
shrunken log2 fold change: 1.54

RRIRFRPPRLPRPRPRPETMPRP
shrunken log2 fold change: 0.0761

RRIRRRPPRLPRPRPRPCKAPRP
shrunken log2 fold change: 0.122

RRIRERPPRLPRPRPRPDSIPRP
shrunken log2 fold change: -0.042

RRIRDRPPRLPRPRPRPSLEPRP
shrunken log2 fold change: 0.245

RRIRTRPPRLPRPRPRPGSRPRP
shrunken log2 fold change: 0.365

RRIRSRPPRLPRPRPRPTLWPRP
shrunken log2 fold change: 0.448

RRIRERPPRLPRPRPRPKYKPRP
shrunken log2 fold change: -0.369

RRIRPRPPRLPRPRPRPGMAPRP
shrunken log2 fold change: 0.204

RRIRNRPPRLPRPRPRPNPKPRP
shrunken log2 fold change: 0.284

RRIRTRPPRLPRPRPRPIKTPRP
shrunken log2 fold change: -0.0452

RRIRRRPPRLPRPRPRPKWLPRP
shrunken log2 fold change: 0.269

RRIRKRPPRLPRPRPRPKLIPRP
shrunken log2 fold change: 0.0851

RRIRIRPPRLPRPRPRPRWDPRP
shrunken log2 fold change: -0.12

RRIRKRPPRLPRPRPRPVWVPRP
shrunken log2 fold change: 0.15

RRIRLRPPRLPRPRPRPYCCPRP
shrunken log2 fold change: -1.03

RRIRQRPPRLPRPRPRPHLSPRP
shrunken log2 fold change: -0.00594

RRIRIRPPRLPRPRPRPLCIPRP
shrunken log2 fold change: -0.484

RRIRRRPPRLPRPRPRPSCCPRP
shrunken log2 fold change: -0.0867

RRIRRRPPRLPRPRPRPVSWPRP
shrunken log2 fold change: 0.849

RRIRFRPPRLPRPRPRPCVWPRP
shrunken log2 fold change: 0.0426

RRIRYRPPRLPRPRPRPKKIPRP
shrunken log2 fold change: -0.483

RRIRSRPPRLPRPRPRPRQLPRP
shrunken log2 fold change: 0.0648

RRIRSRPPRLPRPRPRPPHIPRP
shrunken log2 fold change: -0.0943

RRIRMRPPRLPRPRPRPMCCPRP
shrunken log2 fold change: 0.207

RRIRKRPPRLPRPRPRPMLMPRP
shrunken log2 fold change: 0.322

RRIRGRPPRLPRPRPRPLDKPRP
shrunken log2 fold change: 0.401

RRIRCRPPRLPRPRPRPEQWPRP
shrunken log2 fold change: 0.594

RRIRARPPRLPRPRPRPSMTPRP
shrunken log2 fold change: 0.2

RRIRHRPPRLPRPRPRPKDHPRP
shrunken log2 fold change: -0.274

RRIRCRPPRLPRPRPRPRQCPRP
shrunken log2 fold change: 0.0586

RRIRGRPPRLPRPRPRPACRPRP
shrunken log2 fold change: 0.549

RRIRNRPPRLPRPRPRPSMKPRP
shrunken log2 fold change: -0.609

RRIRLRPPRLPRPRPRPVETPRP
shrunken log2 fold change: 0.217

RRIRWRPPRLPRPRPRPGFMPRP
shrunken log2 fold change: 0.212

RRIRQRPPRLPRPRPRPGCHPRP
shrunken log2 fold change: -0.11

RRIRFRPPRLPRPRPRPSLPPRP
shrunken log2 fold change: 0.0593

RRIRTRPPRLPRPRPRPHNPPRP
shrunken log2 fold change: -0.385

RRIRCRPPRLPRPRPRPYIKPRP
shrunken log2 fold change: -0.791

RRIRPRPPRLPRPRPRPDECPRP
shrunken log2 fold change: -0.041

RRIRQRPPRLPRPRPRPVIVPRP
shrunken log2 fold change: -0.0674

RRIRERPPRLPRPRPRPPHSPRP
shrunken log2 fold change: 0.0332

RRIRNRPPRLPRPRPRPMVHPRP
shrunken log2 fold change: -0.00783

RRIRIRPPRLPRPRPRPAVKPRP
shrunken log2 fold change: -0.0893

RRIRERPPRLPRPRPRPKNHPRP
shrunken log2 fold change: -0.499

RRIRTRPPRLPRPRPRPMHHPRP
shrunken log2 fold change: -0.00407

RRIRNRPPRLPRPRPRPRPQPRP
shrunken log2 fold change: 0.339

RRIRMRPPRLPRPRPRPAWRPRP
shrunken log2 fold change: 0.533

RRIRRRPPRLPRPRPRPPNCPRP
shrunken log2 fold change: 0.15

RRIRQRPPRLPRPRPRPDGMPRP
shrunken log2 fold change: -0.199

RRIRLRPPRLPRPRPRPDTAPRP
shrunken log2 fold change: 0.0121

RRIRPRPPRLPRPRPRPHKYPRP
shrunken log2 fold change: -0.29

RRIRVRPPRLPRPRPRPWAHPRP
shrunken log2 fold change: -0.0201

RRIRDRPPRLPRPRPRPESVPRP
shrunken log2 fold change: 0.0047

RRIRHRPPRLPRPRPRPEKGPRP
shrunken log2 fold change: -0.00804

RRIRWRPPRLPRPRPRPYDNPRP
shrunken log2 fold change: -0.263

RRIRMRPPRLPRPRPRPWRCPRP
shrunken log2 fold change: 0.0452

RRIRIRPPRLPRPRPRPMERPRP
shrunken log2 fold change: -0.0018

RRIRTRPPRLPRPRPRPSSKPRP
shrunken log2 fold change: -0.201

RRIRARPPRLPRPRPRPVQRPRP
shrunken log2 fold change: 0.615

RRIRVRPPRLPRPRPRPPSQPRP
shrunken log2 fold change: 0.125
